# T1: EsCas13d, nuclease-dead (Eubacterium siraeum, UniProt B0MS50, R295A;H300A;R849A;H854A)
# T1 sequence: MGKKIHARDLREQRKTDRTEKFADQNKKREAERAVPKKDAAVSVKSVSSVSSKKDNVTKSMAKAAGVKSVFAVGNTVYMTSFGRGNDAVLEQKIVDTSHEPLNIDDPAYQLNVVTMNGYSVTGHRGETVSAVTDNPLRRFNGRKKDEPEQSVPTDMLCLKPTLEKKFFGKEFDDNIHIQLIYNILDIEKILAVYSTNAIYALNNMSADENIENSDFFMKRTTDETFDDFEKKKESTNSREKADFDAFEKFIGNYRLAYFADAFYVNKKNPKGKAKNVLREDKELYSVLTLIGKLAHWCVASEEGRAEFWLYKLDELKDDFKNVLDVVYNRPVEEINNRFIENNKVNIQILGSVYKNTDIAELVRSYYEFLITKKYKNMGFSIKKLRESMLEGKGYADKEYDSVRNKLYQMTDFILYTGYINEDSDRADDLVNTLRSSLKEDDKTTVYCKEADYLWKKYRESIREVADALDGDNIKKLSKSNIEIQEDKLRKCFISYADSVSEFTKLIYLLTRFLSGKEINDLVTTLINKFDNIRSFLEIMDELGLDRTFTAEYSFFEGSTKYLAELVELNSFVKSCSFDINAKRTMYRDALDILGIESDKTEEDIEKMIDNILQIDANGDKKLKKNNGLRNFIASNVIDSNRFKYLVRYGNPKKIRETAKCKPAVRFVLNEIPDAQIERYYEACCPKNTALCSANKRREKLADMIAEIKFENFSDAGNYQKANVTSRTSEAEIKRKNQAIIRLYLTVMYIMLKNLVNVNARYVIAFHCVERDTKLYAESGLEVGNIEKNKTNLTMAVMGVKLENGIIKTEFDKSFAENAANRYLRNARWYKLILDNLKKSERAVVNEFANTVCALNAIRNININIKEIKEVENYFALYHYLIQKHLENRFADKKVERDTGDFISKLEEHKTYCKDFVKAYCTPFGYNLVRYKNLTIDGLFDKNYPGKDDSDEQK
# B1: target 1 insU 3' of 5,insG 3' of 4 (mixed)
# RNA 1: CACCCGUGCAAAAAUGCAGGGGUCUAAAACUGAGCGGAUAACCUCUCUAUGG
# RNA 2: GGGAAUGGAUCCACAUCUACGAAUUCGUACCAUAGAGAGGUUAUCCGUCGUCACCGAGAUCGGAAGAGCACACGU
# B2: target 1 insC 3' of 14,insA 3' of 13 (mixed)
# RNA 1: CACCCGUGCAAAAAUGCAGGGGUCUAAAACUGAGCGGAUAACCUCUCUAUGG
# RNA 2: GGGAAUGGAUCCACAUCUACGAAUUCGUACCAUAGAGACGAGUUAUCCGCUCACCGAGAUCGGAAGAGCACACGU
# B3: target 1 del4 (mixed)
# RNA 1: CACCCGUGCAAAAAUGCAGGGGUCUAAAACUGAGCGGAUAACCUCUCUAUGG
# RNA 2: GGGAAUGGAUCCACAUCUACGAAUUCGUACCAUAGAGAGGUUAUCCGUCACCGAGAUCGGAAGAGCACACGU
# B4: target 1 C2U,U11C (mixed)
# RNA 1: CACCCGUGCAAAAAUGCAGGGGUCUAAAACUGAGCGGAUAACCUCUCUAUGG
# RNA 2: GGGAAUGGAUCCACAUCUACGAAUUCGUACCAUAGAGAGGCUAUCCGCUUACCGAGAUCGGAAGAGCACACGU
# B5: target 1 complement block 8-12 (mixed)
# RNA 1: CACCCGUGCAAAAAUGCAGGGGUCUAAAACUGAGCGGAUAACCUCUCUAUGG
# RNA 2: GGGAAUGGAUCCACAUCUACGAAUUCGUACCAUAGAGAGCAAUACCGCUCACCGAGAUCGGAAGAGCACACGU
# B6: target 1 insG 3' of 20,insC 3' of 9 (mixed)
# RNA 1: CACCCGUGCAAAAAUGCAGGGGUCUAAAACUGAGCGGAUAACCUCUCUAUGG
# RNA 2: GGGAAUGGAUCCACAUCUACGAAUUCGUACCAGUAGAGAGGUUACUCCGCUCACCGAGAUCGGAAGAGCACACGU
# B7: target 1 insU 3' of 5,insA 3' of 3 (mixed)
# RNA 1: CACCCGUGCAAAAAUGCAGGGGUCUAAAACUGAGCGGAUAACCUCUCUAUGG
# RNA 2: GGGAAUGGAUCCACAUCUACGAAUUCGUACCAUAGAGAGGUUAUCCGUCUACACCGAGAUCGGAAGAGCACACGU
# B8: target 1 insG 3' of 14,insG 3' of 14 (mixed)
# RNA 1: CACCCGUGCAAAAAUGCAGGGGUCUAAAACUGAGCGGAUAACCUCUCUAUGG
# RNA 2: GGGAAUGGAUCCACAUCUACGAAUUCGUACCAUAGAGAGGGGUUAUCCGCUCACCGAGAUCGGAAGAGCACACGU
# B9: target 1 insC 3' of 20,insU 3' of 5 (mixed)
# RNA 1: CACCCGUGCAAAAAUGCAGGGGUCUAAAACUGAGCGGAUAACCUCUCUAUGG
# RNA 2: GGGAAUGGAUCCACAUCUACGAAUUCGUACCACUAGAGAGGUUAUCCGUCUCACCGAGAUCGGAAGAGCACACGU
# B10: target 1 insG 3' of 9,insU 3' of 6 (mixed)
# RNA 1: CACCCGUGCAAAAAUGCAGGGGUCUAAAACUGAGCGGAUAACCUCUCUAUGG
# RNA 2: GGGAAUGGAUCCACAUCUACGAAUUCGUACCAUAGAGAGGUUAGUCCUGCUCACCGAGAUCGGAAGAGCACACGU
# B11: target 1 insC 3' of 19,insC 3' of 3 (mixed)
# RNA 1: CACCCGUGCAAAAAUGCAGGGGUCUAAAACUGAGCGGAUAACCUCUCUAUGG
# RNA 2: GGGAAUGGAUCCACAUCUACGAAUUCGUACCAUCAGAGAGGUUAUCCGCUCCACCGAGAUCGGAAGAGCACACGU
# B12: target 1 insG 3' of 9,insG 3' of 3 (mixed)
# RNA 1: CACCCGUGCAAAAAUGCAGGGGUCUAAAACUGAGCGGAUAACCUCUCUAUGG
# RNA 2: GGGAAUGGAUCCACAUCUACGAAUUCGUACCAUAGAGAGGUUAGUCCGCUGCACCGAGAUCGGAAGAGCACACGU
# B13: target 1 insU 3' of 15,insA 3' of 3 (mixed)
# RNA 1: CACCCGUGCAAAAAUGCAGGGGUCUAAAACUGAGCGGAUAACCUCUCUAUGG
# RNA 2: GGGAAUGGAUCCACAUCUACGAAUUCGUACCAUAGAGUAGGUUAUCCGCUACACCGAGAUCGGAAGAGCACACGU
# Molecular target: T1, EsCas13d, nuclease-dead
# Assay: crRNA (strand 1, pre-loaded); Mg2+; 40 mM Tris-HCl pH 7.5, 150 mM NaCl, 6 mM MgCl2, 1 mM DTT, 0.1% Tween-20, 0.2 mg/ml BSA; 25 C; 10 min per concentration, then washed
# Settings: tags: His6-TwinStrep-SUMO cleaved; N-terminal SNAP kept (SNAP-Surface 488); label: 3' end held by stalled T7 RNA polymerase
row,Binder,Kd [nM]
1,B1,12.7 ± 0.9
2,B2,28 ± 7
3,B3,34 ± 7
4,B4,9.5 ± 0.4
5,B5,12.7 ± 0.8
6,B6,~45
7,B7,19.9 ± 1.7
8,B8,7.7 ± 0.6
9,B9,8.6 ± 0.9
10,B10,20.3 ± 1.2
11,B11,30 ± 4
12,B12,10.3 ± 0.5
13,B13,8.9 ± 0.6

# Reference: article PMC10786891, “Massively parallel profiling of RNA-targeting CRISPR-Cas13d”
